tested on: not listed separately; test: Probe size (volume) by FPLC calibrated with globular protein standards; format: physicochemical; details: FPLC, Superdex 200 10/300GL, 0.05 M sodium phosphate, 0.1 M NaCl (0.1% Tween, pH 7.2), 0.8 ml/min; calibrated with globular protein standards
Text: FPLC chromatograms are shown for PN’s bearing the IR-783 fluorochrome with PEG’s ranging from 2 to 40 kDa ( Figure 2A ). FPLC was calibrated with globular protein standards, and globular protein equivalent molecular volumes (in kDa) were obtained ( Table 1 , column 5). Next, these globular protein equivalent molecular volumes were converted to PN diameters in nm using the relationship: [drawing 1] where M is the molecular weight of a globular protein expressed in daltons. PN diameters ranged from 3.0 to 11.7 nm, which means PN’s can be smaller or larger than albumin (MW = 67 kDa; diameter = 5.4 nm, by the formula above). Thus Table 1 column 5 gives the PN volumes obtained from FPLC expressed in two ways: (i) as the molecular weight in kDa of globular proteins with equivalent volumes, permitting size comparison of PN’s to proteins, and, (ii) as spherical diameters (“Dia.”) in nm, permitting size comparisons of a PN to relative to other nanomaterials. We confirmed the sizes obtained with FPLC by measuring the size of PN(783)11.7 by dynamic light scattering (11.7 nm).
The mass spec of low molecular weight (MW) materials were obtained by MS-ESI Micromass (Waters) and high MW molecules were determined through MALDI-TOF analyses at the Tufts University Core Facility. RP-HPLC (Varian ProStar detector and delivery modules) employed an eluant A (0.1% TFA/water) and eluant B (0.1% TFA and 9.9% water in acetonitrile). Probe size (volume) was determined by FPLC using an ÄKTA Purifier 10 and SuperdexTM 200 10/300GL column (GE Healthcare) with a running buffer of 0.05 M sodium phosphate, 0.1 M NaCl (0.1% Tween, pH 7.2) and flow rate of 0.8 ml/min. Standards (GE Healthcare) were Ferritin, Ribonuclease A, Carbonic Anhydrase, and Conalbumin and Blue Dextran 2000. To obtain probe volumes, Mr (apparent molecular weight based on size exclusion retention) was plotted versus Kav. [drawing 7] , Vt = total volume, Ve = elution volume, Vo = void volume.
PN and peptide characterization: The mass spec of low molecular weights (MW) were obtained by MS-ESI Micromass (Waters) and high MW molecules were determined through MALDI-TOF analyses at the Tufts University Core Facility. RP-HPLC (Varian ProStar detector and delivery modules) employed an eluant A (0.1% TFA /water) and eluant B (0.1% TFA and 9.9% water in acetonitrile). […] Standards (GE Healthcare) were Ferritin, Ribonuclease A, Carbonic Anhydrase, and Conalbumin and Blue Dextran 2000. To obtain probe volumes, Mr (apparent molecular weight based on size exclusion retention) was plotted versus Kav. [picture] , Vt = total volume, Ve = elution volume, Vo = void volume.

| Substance | Volume FPLC, globular protein equivalent molecular volume [kDa] |
| --- | --- |
| (DOTA)Lys(PEG 10 kDa)-Cys(IR-783) [PN(783)6.1, PEG-like Nanoprobe: 10 kDa PEG, IR-783 fluorochrome, DOTA peptide] | 100.7 |
| (DOTA)Lys(PEG 20 kDa)-Cys(IR 783) [PN(783)8.4, PEG-like Nanoprobe: 20 kDa PEG, IR-783 fluorochrome, DOTA peptide] | 262.5 |
| (DOTA)Lys(PEG 30 kDa)-Cys(Cy3) [PN(545)10.0, PEG-like Nanoprobe: 30 kDa PEG, Cy3 fluorochrome, DOTA peptide] | 435 |

same assay, conditions: globular protein equivalent volume from FPLC converted to spherical diameter by formula (ref 15)

| Substance | Volume FPLC Dia. (diameter) [nm] |
| --- | --- |
| (DOTA)Lys(PEG 10 kDa)-Cys(IR-783) [PN(783)6.1, PEG-like Nanoprobe: 10 kDa PEG, IR-783 fluorochrome, DOTA peptide] | 6.1 |
| (DOTA)Lys(PEG 20 kDa)-Cys(IR 783) [PN(783)8.4, PEG-like Nanoprobe: 20 kDa PEG, IR-783 fluorochrome, DOTA peptide] | 8.4 |
| (DOTA)Lys(PEG 30 kDa)-Cys(Cy3) [PN(545)10.0, PEG-like Nanoprobe: 30 kDa PEG, Cy3 fluorochrome, DOTA peptide] | 10.0 |

tested on: not listed separately; test: Quantum yield of fluorochrome-bearing peptides and PN's; format: physicochemical; details: means±1 S.D.
Text: (The p values showing significances are in Figure S2 in File S1). […] PEG attachment increased quantum yields in all cases, but as discussed below the magnitude of PEG generated improvement varied with the fluorochrome chosen. A mechanism for the PEG improvement of quantum yield is fluorochrome shielding, or the blocking of fluorochrome-fluorochrome interactions that result in quenching.
However, the magnitude of these benefits varied with the fluorochrome selected. […] Previous studies indicated PEGylated, fluorochrome-bearing peptides have absorption spectra in PBS similar to their unstacked absorption spectra in methanol. […] It appears that longer wavelength fluorochromes have stronger fluorochrome/fluorochrome stacking interactions, which result in more quenching, which is blocked by PEG and which gives rise to larger increases in quantum yield.

| Substance | Quant. Yield |
| --- | --- |
| (DOTA)Lys(PEG 10 kDa)-Cys(IR-783) [PN(783)6.1, PEG-like Nanoprobe: 10 kDa PEG, IR-783 fluorochrome, DOTA peptide] | 0.16±0.03 |
| (DOTA)Lys(PEG 20 kDa)-Cys(IR 783) [PN(783)8.4, PEG-like Nanoprobe: 20 kDa PEG, IR-783 fluorochrome, DOTA peptide] | 0.16±0.04 |
| (DOTA)Lys(PEG 30 kDa)-Cys(Cy3) [PN(545)10.0, PEG-like Nanoprobe: 30 kDa PEG, Cy3 fluorochrome, DOTA peptide] | 0.61±0.10 |
| (DOTA)Lys-Cys(Cy3) [unPEGylated DOTA peptide with Cy3 fluorochrome on the cysteine side chain] | 0.32±0.07 |
| (DOTA)Lys-Cys(Fl) [unPEGylated DOTA peptide with fluorescein on the cysteine side chain] | 0.50±0.11 |

tested on: not listed separately; test: Circulating form of PN's: FPLC of sera of injected mice; format: in vivo; details: 20 nmoles IV tail vein, nude mice, FPLC at 783 nm
Experimental: To see if the variable PN size could be translated into tunable pharmacokinetics, it was essential to first establish that PN’s circulated at PEG-determined, pre-injection dimensions. Mice were injected with PN’s and FPLC chromatograms of serum samples, taken at various times post injection ( Figures 2D, 2E and 2F ), compared with pre-injection PN samples. By using PN’s absorbing at 783 nm, chromatograms from the sera of injected mice reflect this PN, since there are no compounds in serum that absorb at this wavelength. […] Similarly, peaks for PN(783)6.1 ( Figure 2E ) and PN(783)4.3 ( Figure 2F ) where identical for pre-injection samples and for nanoprobes in the sera of injected mice. Thus, molecular weight of the PEG chosen determines PN dimensions in vitro and those dimensions are maintained after injection.
(§1) At the indicated time, 50 µl of blood was collected with microhematocrit capillary tube (Fisher Scientific) from the tail, and transferred to Eppendorf microcentrifuge tube with anticoagulant (EDTA) coating (Fisher Scientific). Tubes were centrifuged (5000 rpm for 5 min), and the supernatant was injected to the FPLC, a ÄKTA Purifier 10 with SuperdexTM 200 10/300GL column.
as §1, with “μl” for “µl”

| Substance | Circulating size: FPLC peaks of serum samples after injection versus pre-injection sample |
| --- | --- |
| (DOTA)Lys(PEG 10 kDa)-Cys(IR-783) [PN(783)6.1, PEG-like Nanoprobe: 10 kDa PEG, IR-783 fluorochrome, DOTA peptide] | identical |

tested on: HT-29 cells; test: Non-specific binding (NSB) to HT-29 cells by FACS; format: cell-based, human; details: 100 μL of nanoprobes (2 μM) added to 100 μl 2% FBS/DPBS, 30 min at 37 °C, means±1 S.D.
Text: We next examined the non-specific binding (NSB) of PN’s to HT-29 cells based on the assumption that NSB minimization will correlate with a desirable minimization of post-IV injection retention. As noted above, after diagnostic drugs generate their added information, retention can only increase the risks of delayed toxicity. The attachment of PEG decreased the non-specific binding (NSB) to HT-29 cells, scored as the percent of cells above the cutoff for unstained cells seen with FACS ( Table 1 , column 7).
PN and peptide binding to cells (effect of PEGylation on NSB): HT-29, a human colon carcinoma cell line, was from the American Tissue Culture Collection and maintained according to their instructions. Cells were seeded on 24-well plates at 5X10^5 cells/well in culture medium (RPMI 1640 with 10% FBS) the day before the assay. The day of assay, medium was removed, wells rinsed twice with DPBS (+Ca, +Mg), and 100 μl of 2% FBS / DPBS (+Ca, +Mg) added. 100 μL of Nanoprobes (2 μM) in DPBS (+Ca, +Mg) was added to cells and incubated for 30min at 37 °C. (Probe concentrations were determined spectrophotometrically (783 nm, extinction coefficient of 314 471 cm^-1 M^-1 for IR-783; 497 nm, extinction coefficient of 68 000 cm^-1 M^-1 for Fluorescein; 545 nm, extinction coefficient of 150 000 cm^-1 M^-1 for Cy3). Cells were detached by Trypsin/EDTA and assayed for fluorescence by FACS (BD 7 laser LSR2 for nanoprobes with IR-783; BD 3 laser LSR2 for nanoprobes with Fluorescein or Cy3).
Figure S4: Effect of PEGylation on non-specific binding to cells by single channel FACS. […] Arrows indicates the cutoff for unstained cells.

| Substance | Cell NSB: percent of HT-29 cells above the cutoff for unstained cells [%] |
| --- | --- |
| (DOTA)Lys(PEG 10 kDa)-Cys(IR-783) [PN(783)6.1, PEG-like Nanoprobe: 10 kDa PEG, IR-783 fluorochrome, DOTA peptide] | 14±1 |
| (DOTA)Lys(PEG 20 kDa)-Cys(IR 783) [PN(783)8.4, PEG-like Nanoprobe: 20 kDa PEG, IR-783 fluorochrome, DOTA peptide] | 14±1 |
| (DOTA)Lys(PEG 30 kDa)-Cys(Cy3) [PN(545)10.0, PEG-like Nanoprobe: 30 kDa PEG, Cy3 fluorochrome, DOTA peptide] | 15±1 |
| (DOTA)Lys-Cys(Cy3) [unPEGylated DOTA peptide with Cy3 fluorochrome on the cysteine side chain] | 98±1 |
| (DOTA)Lys-Cys(Fl) [unPEGylated DOTA peptide with fluorescein on the cysteine side chain] | 0.4±0.1 |

— article PMC4004541, “PEG-Like Nanoprobes: Multimodal, Pharmacokinetically and Optically Tunable Nanomaterials” (PLoS ONE, 2014)
